The values that follow come from PMC9817179.

Assay [1] deals with Halo-TAF15(IDR)-NLS (UniProt Q92804). The assay is described as follows: live-cell single-particle tracking (SPT), residence time in puncta; living U2OS cells at 37°C, 5% CO2; HILO illumination; PA-JF646-labelled single molecules tracked (500 ms per frame, 2000 frames) within puncta of the same protein seen with JFX549; in-puncta trajectories; specific residence time of a two-component exponential fit, corrected for photobleaching with H2B-Halo.

The target in assay [2] is NLS-TAF15(IDR)-Halo-FTH1 (UniProt Q92804). The description is as above.

As to “Halo-TAF15(IDR)-NLS (from UniProt Q92804 2-205) (domain or fragment)”, the residence time (RT) at its puncta in assay [1] worked out at 10.2 s.

The substance “NLS-TAF15(IDR)-Halo-FTH1 (from UniProt Q92804 2-205)” came in with a residence time (RT) at its puncta in assay [2] of 64.2 s.
